# Assay results reported in publication PMC4428356, “Endophilin-A1 BAR domain interaction with arachidonyl CoA” (Frontiers in Molecular Biosciences, 2014).
# Where “and” joins values, the source holds several entries; their conditions need not be identical. Identical values can stand only once.
# B1: Endophilin-A1-BAR (residues 1-256 of mouse endophilin-A1) (domain or fragment, UniProt Q62420 1-256, looked up)
# chain: MSVAGLKKQFHKATQKVSEKVGGAEGTKLDDDFKEMERKVDVTSRAVMEIMTKTIEYLQPNPASRAKLSMINTMSKIRGQEKGPGYPQAEALLAEAMLKFGRELGDDCNFGPALGEVGEAMRELSEVKDSLDMEVKQNFIDPLQNLHDKDLREIQHHLKKLEGRRLDFDYKKKRQGKIPDEELRQALEKFDESKEIAESSMFNLLEMDIEQVSQLSALVQAQLEYHKQAVQILQQVTVRLEERIRQASSQPRREYQ
# notes: endophilin-A1, mouse, residues 1-256 (BAR domain with the N-terminal amphipathic helix); calculated mass of the monomer 29 kDa; Dimeric at 2 mg/ml, higher oligomers at higher concentrations; also called endophilin-A1 BAR domain; source: E. coli BL21 codon plus, purified (Ni-chelating sepharose, Superdex 200 gel filtration)
# Experiments:
# [1] = molecular target: the molecule itself; test: SAXS; free endophilin-A1-BAR at 2 mg/ml in buffer B (20 mM Bicine pH 9, 100 mM NaCl), 283 K; monodisperse; mass from forward scattering, Porod volume, fit with the crystallographic dimer
# [2] = molecular target: the molecule itself; test: SAXS; free endophilin-A1-BAR at 3, 4 and 6 mg/ml in buffer B (20 mM Bicine pH 9, 100 mM NaCl), 283 K; volume fractions of dimer, tetramer and a putative helical octamer fitted with OLIGOMER
protein,measurement,setting,value
B1,stoichiometry N,[1],2
same,stoichiometry N,[2],4 and 8
